B1: mAb anti-human-HER2/70.27.58 - clone 58 (antibody, V domains shown)
VH: EVQLQQSGPELEKPGASVKISCKASGYSFTGYNMNWVKQSNGKSLEWIGTIDPNYGTSYNQKFKGKATLTVDKSSSTAYMHLKSLTSEDSSVYYCARRKVNYEAWFAFWGQGTLVTVSA
VL: DIVLTQSPASLAVSLGQRATISCRASESVDSYGNSFMHWYQQKPGQPPKLLIYRASNLESGIPARFSGSGSRTDFTLTINPVEADDVATYYCQQSNEDPFTFGSGTKLEIKR
notes: also called mAb anti-human-HER2/clone 58; anti-HER2/70.27.58
B2: mAb anti-human-HER2/70.21.73.67 - clone 67 (antibody, V domains shown)
VH: EIQLQQSGPELVKPGASVRVSCKASGYSFTDYNMYWVRQSQGESLEWIGYIDHYNGNTGYNQKFRDKATLTVDKASSTAFMHLNSLTSEDSAVYYCARHYDYGAMDYWGQGTSVTVSS
VL: DIVMTQSQKFMSTSVGDRVSVTCKASQNVGTNVAWYQQKPGQSPKALIYSASYRYSGVPDRFTGSGSGTDFTLTISTVQSEDLAEYFCQHYYIYPLTFGAGTKLELKR
notes: Used as a biotin complex in the sandwich ELISA; No cleavage site is stated; also called mAb anti-human-HER2/clone 67; anti-HER2/70.21.73.67

How the values were obtained:
[1] = molecular target: T1, recombinant HER2 ECD domain (human, UniProt P04626 23-652); experiment: Western blot
T1 construct: extracellular domain; also called extracellular domain of HER2

[2] = molecular target: T2, human epidermal growth factor receptor 2 (HER2), native, in SK-BR-3 and SK-OV-3 cells and cell lysates (human, UniProt P04626 23-1255); experiment: immunofluorescence on fixed cells
T2 construct: whole, on cells; Detected in denatured cell lysates (Western blot) and in fixed cells (immunofluorescence); also called HER2 antigen; HER2 protein

[3] = molecular target: HER2 antigen (as used in the ELISA binding assays and on the optoelectronic biosensors) (human) (UniProt P04626); experiment: in vitro antigen binding curve (ELISA), half of the effective dose
[4] = molecular target: HER2 antigen (as used in the ELISA binding assays and on the optoelectronic biosensors) (human) (UniProt P04626); experiment: direct ELISA, lot SDS-20211201 after 430 days at -80°C; amount of antibody that binds half of the available antigen
[5] = molecular target: HER2 antigen (as used in the ELISA binding assays and on the optoelectronic biosensors) (human) (UniProt P04626); experiment: direct ELISA, lot SDS-20211231 after 352 days at -80°C; amount of antibody that binds half of the available antigen
[6] = molecular target: HER2 antigen (as used in the ELISA binding assays and on the optoelectronic biosensors) (human) (UniProt P04626); experiment: direct ELISA, lot SDS-20220120 after 341 days at -80°C; amount of antibody that binds half of the available antigen
[7] = molecular target: HER2 antigen (as used in the ELISA binding assays and on the optoelectronic biosensors) (human) (UniProt P04626); experiment: direct ELISA, lot SDS-20220126 after 340 days at -80°C; amount of antibody that binds half of the available antigen

| Binder | binding result [1] | binding result [2] | ED50 [3] | ED50 [4] | ED50 [5] | ED50 [6] | ED50 [7] |
| --- | --- | --- | --- | --- | --- | --- | --- |
| B1 | binds | binds | 0.0922 nM |  |  |  |  |
| B2 | binds | binds | 0.235 nM | 0.0046 µg | 0.0043 µg | 0.004 µg | 0.0043 µg |

Reference: patent publication EP4345113A1 (SDS Optic Spolka Akcyjna, dated 2024)
